This note sets out measurements from publication doi:10.64898/2025.12.26.696629.

The target of the data set is T1, SufR6-229-His6 (holo, [4Fe-4S]) (Mycobacterium tuberculosis H37Rv, UniProt O53151 30-253).
T1 sequence: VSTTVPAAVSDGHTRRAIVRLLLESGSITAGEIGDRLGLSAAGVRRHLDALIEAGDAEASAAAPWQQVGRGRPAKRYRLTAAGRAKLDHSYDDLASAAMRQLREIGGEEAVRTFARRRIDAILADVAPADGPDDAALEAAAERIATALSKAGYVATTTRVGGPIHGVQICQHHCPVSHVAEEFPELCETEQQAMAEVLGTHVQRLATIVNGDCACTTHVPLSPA
The data set is described as follows: MST.

B1: PsufR 50-bp (dsDNA)
DNA 1: CCGATCAACGGAATTTTGTCACACTGATGTTGTGAAAATCCCGGCGGTCT
DNA 2: AGACCGCCGGGATTTTCACAACATCAGTGTGACAAAATTCCGTTGATCGG
A word on the Kd: it is the concentration at which binding is half-saturated. Molecule B1 yielded a Kd of 235 ± 45.8 nM.
